Data on 7 sequences can be found in the Immune Epitope Database (IEDB).

pIC50, pKd: −log10 of the molar value.

In one test the target is HLA-A*24:02. Description: IEDB peptide-MHC binding, purified MHC/competitive/radioactivity; ≥ and ≤ were set here for values at or beyond the usual limits of such assays. As to conditions: source organism: Homo sapiens.
The target in test [1] is HLA-A*02:01. Description: IEDB peptide-MHC binding, purified MHC/competitive/fluorescence; filed as Kd, often an IC50 or EC50 that approximates it; ≥ and ≤ were set here for values at or beyond the usual limits of such assays. The following applies: source organism: Human immunodeficiency virus 1.
In the next test the target is HLA-B*39:01. The description is as above. The following applies: source organism: Human immunodeficiency virus 1.
For the next test, the target named is HLA-A*02:03. The test is described as above. The following applies: source organism: Human immunodeficiency virus 1.
The next test has as its target HLA-A*26:01. The test is described as above. As to conditions: source organism: Human immunodeficiency virus 1.
For another test, the target named is HLA-B*18:01. The test is described as above. As to conditions: source organism: Human immunodeficiency virus 1.
The target of a further test is HLA-B*08:02. The description is as above. The following applies: source organism: Human immunodeficiency virus 1.
For another test, the target named is HLA-A*68:02. The description is as above. As to conditions: source organism: Human immunodeficiency virus 1.
The target in the next test is HLA-A*02:06. The test is described as above. As to conditions: source organism: Human immunodeficiency virus 1.
Test [2] deals with HLA-A*01:01. The test is described as above. As to conditions: source organism: Yersinia pseudotuberculosis IP 31758.
Test [3] deals with HLA-A*03:01. The test is described as above. As to conditions: source organism: Yersinia pseudotuberculosis IP 31758.
The target of another test is HLA-A*68:23. The description is as above. As to conditions: source organism: Yersinia pseudotuberculosis IP 31758.
The target of another test is HLA-B*15:42. Described as above. As to conditions: source organism: Yersinia pseudotuberculosis IP 31758.
The target of test [4] is HLA-B*15:01. Described as above. As to conditions: source organism: Yersinia pseudotuberculosis IP 31758.
Another test concerns the target HLA-B*83:01. The description is as above. The following applies: source organism: Yersinia pseudotuberculosis IP 31758.
Another test addresses HLA-B*45:06. Described as above. As to conditions: source organism: Yersinia pseudotuberculosis IP 31758.
For another test, the target named is HLA-C*04:01. Described as above. The following applies: source organism: Yersinia pseudotuberculosis IP 31758.
Test [5] concerns the target HLA-B*58:01. Described as above. As to conditions: source organism: Yersinia pseudotuberculosis IP 31758.
For the next test, the target named is HLA-B*44:02. Kind of test: IEDB peptide-MHC binding, purified MHC/direct/fluorescence; filed as Kd, often an IC50 or EC50 that approximates it; ≥ and ≤ were set here for values at or beyond the usual limits of such assays. The following applies: source organism: Salmonella enterica.
The target in test [6] is HLA-A*01:01. Described as above. The following applies: source organism: Salmonella enterica.
Another test has as its target HLA-B*08:01. Described as above. As to conditions: source organism: Salmonella enterica subsp. enterica serovar Typhimurium str. LT2.
Test [7] concerns the target HLA-A*03:01. The description is as above. As to conditions: source organism: Salmonella enterica.
Another test deals with HLA-A*11:01. Described as above. As to conditions: source organism: Salmonella enterica.
Another test concerns the target HLA-B*07:02. The description is as above. As to conditions: source organism: Salmonella enterica.
Test [8] has as its target HLA-A*02:01. The test is described as above. As to conditions: source organism: Salmonella enterica.
Another test concerns the target HLA-A*02:16. The test is described as above. The following applies: source organism: Salmonella enterica subsp. enterica serovar Typhimurium str. LT2.
The target of test [9] is HLA-B*15:01. The description is as above. As to conditions: source organism: Salmonella enterica.
Another test addresses HLA-B*40:01. Described as above. The following applies: source organism: Salmonella enterica.
The next test deals with HLA-C*14:02. The description is as above. As to conditions: source organism: Salmonella enterica subsp. enterica serovar Typhi str. CT18.
A further test concerns the target HLA-A*69:01. The description is as above. The following applies: source organism: Salmonella enterica.
In test [10] the target is HLA-B*58:01. The test is described as above. The following applies: source organism: Salmonella enterica.
The target of test [11] is HLA-B*27:05. Described as above. The following applies: source organism: Salmonella enterica.
Another test deals with HLA-A*02:50. Description: IEDB peptide-MHC binding, purified MHC/competitive/fluorescence; filed as Kd, often an IC50 or EC50 that approximates it; ≥ and ≤ were set here for values at or beyond the usual limits of such assays. As to conditions: source organism: Salmonella enterica subsp. enterica serovar Typhi.
A further test deals with HLA-A*02:07. Description: IEDB peptide-MHC binding, purified MHC/competitive/radioactivity; filed as Kd, often an IC50 or EC50 that approximates it; ≥ and ≤ were set here for values at or beyond the usual limits of such assays. As to conditions: source organism: Hepatitis C virus (isolate Taiwan).
Another test deals with HLA-A*02:05. Described as above. As to conditions: source organism: Hepatitis C virus (isolate Taiwan).
The target of the next test is HLA-B*40:02. Description: IEDB peptide-MHC binding, cellular MHC/competitive/fluorescence; ≥ and ≤ were set here for values at or beyond the usual limits of such assays. The following applies: source organism: Homo sapiens.
For test [12], the target named is HLA-B*27:05. Kind of test: IEDB peptide-MHC binding, purified MHC/competitive/radioactivity; ≥ and ≤ were set here for values at or beyond the usual limits of such assays. As to conditions: source organism: Human papillomavirus 16.

By pIC50 is commonly meant the IC50 on a negative log10 scale, so that one unit is a factor of ten. Consider KYAGESFPGI, for which, in the test with HLA-A*24:02, the pIC50 was 6.08.

As a reminder, the pKd is −log10 of the Kd, conventionally taken in molar units. In the case of IEVKDTKEAL, the pKd is 6.17 with HLA-A*02:01 [1]; not above 4.70 in the test with HLA-B*39:01; not above 4.70 with HLA-A*02:03; not above 4.70 in the test with HLA-A*26:01; 6.50 with HLA-B*18:01; not above 4.70 with HLA-B*08:02. Also, the negative-log Kd (pKd) with HLA-A*68:02 was 6.12; in the test with HLA-A*02:06 it was 6.24.

As for RQIRMTSTI, the negative-log Kd (pKd) with HLA-A*01:01 [2] is 5.52; in the test with HLA-A*03:01 [3] it was not above 4.70; with HLA-A*68:23, 6.37; with HLA-B*15:42, not above 5.30; with HLA-B*15:01 [4], 6.79; in the test with HLA-B*83:01, not above 5.30. The negative-log Kd (pKd) is not above 5.30 in the test with HLA-B*45:06, not above 5.30 with HLA-C*04:01 and 6.21 in the test with HLA-B*58:01 [5].

Turning to AMMWRIAQL, the pKd is not above 4.70 with HLA-B*44:02; not above 4.70 in the test with HLA-A*01:01 [6]; 6.21 with HLA-B*08:01; not above 4.70 with HLA-A*03:01 [7]; not above 4.70 with HLA-A*11:01; not above 4.70 with HLA-B*07:02. The pKd with HLA-A*02:01 [8] was 7.58; with HLA-A*02:16, not below 9.00; with HLA-B*15:01 [9], 6.77; with HLA-B*40:01 it was 5.64; with HLA-C*14:02, 6.93; with HLA-A*69:01, 5.70. Also, the pKd with HLA-B*58:01 [10] is not above 4.70; with HLA-B*27:05 [11], 6.46; in the test with HLA-A*02:50, not below 10.00.

As to YLVAYQATV, the values for the negative-log Kd (pKd) in the test with HLA-A*02:07 and in the test with HLA-A*02:05 were 5.64 and 8.07, respectively.

As to KEHSLQVSP, in the test with HLA-B*40:02, the pIC50 is 5.72.

Regarding YRHYCYSL, the pIC50 in the test with HLA-B*27:05 [12] was 7.92.
